45 variants from the Human Domainome abundance scans (Beltran et al. 2025) can be followed below.

± gives the uncertainty stated by the source.

The labels stand for the following.
B1: Integrator complex subunit 12, residues 155 to 213; numbered along this chain, Q96CB8 (parent)
chain: AMEMGLACVVCRQMMVASGNQLVECQECHNLYHRDCHKPQVTDKEANDPRLVWYCARCT

Variants of B1 are the subject of the data set. The data set can be described thus: abundance fitness (aPCA) (normalised: wild type 0, dead -1); higher = more abundant; growth selection in yeast, the domain comes from the species named. The conditions noted are these: Homo sapiens.
On to AMEMGLACVVCRQMMVASGNQLVECQECHNLYHRDCHKPQVTDKEANDPRLNWYCARCT, for which the abundance fitness was -0.012 ± 0.08. With AMEMGLACVVCRQMMVASGNQLVECQECHNLYHRDCHKPQVTDKEANDPRLVWYCERCT the figure was -0.08 ± 0.043; with AMEMGLACVVCRQMMVASGNQLVECQVCHNLYHRDCHKPQVTDKEANDPRLVWYCARCT, -0.184 ± 0.031; with AMEMGLACVVCRQMMVASGNQLVECQSCHNLYHRDCHKPQVTDKEANDPRLVWYCARCT, -0.007 ± 0.03.

Consider AMEMGLACVVCRQMMVASGNQLVECQECHNLYHRDCHKPQVTDKEANDPKLVWYCARCT, for which the abundance fitness is 0.025 ± 0.073. As for AMEMGLACVVCRQMMVASGNQLVECQECHNLYHRDCHKPQVTDKEANDPVLVWYCARCT, the figure is -0.177 ± 0.067. As for AMEMGLACVVCRQMMVASGNQLVECQECHNLYHRDCHKPQVTDKEANDPWLVWYCARCT, the abundance fitness was -0.206 ± 0.093. Take AMEMGLACVVCRQMMVASGNQLVECQECHNLYHRDCHKPQVTDKEANDPRLVWHCARCT: the abundance fitness stood at 0.119 ± 0.082. As for AMEMGLACVVCVQMMVASGNQLVECQECHNLYHRDCHKPQVTDKEANDPRLVWYCARCT, the figure is -0.463 ± 0.041; as for AMEMGLNCVVCRQMMVASGNQLVECQECHNLYHRDCHKPQVTDKEANDPRLVWYCARCT, 0.039 ± 0.036; as for AMEMGLECVVCRQMMVASGNQLVECQECHNLYHRDCHKPQVTDKEANDPRLVWYCARCT, -0.064 ± 0.068.

For the variant AMEMGLACVVCRQMMVASGNQLVECQECHNLYHRDCHKTQVTDKEANDPRLVWYCARCT, the abundance fitness is -0.087 ± 0.056. With AMEMGLACVVCRQMMVASGNQLVECQECHNLYHRDCHKPQVTDKEANDPRLVWYCARTT, the abundance fitness was -0.918 ± 0.085.

Regarding AMEMGLACVVCRQMMVASGNQLVECQECHNLYHRDCHKPQVTDKEANDPRLVWYCARST, the abundance fitness was -1.1 ± 0.074. With AMEMGLACVVCRQMMVASGNQLVECQECHNLYHRDYHKPQVTDKEANDPRLVWYCARCT the figure was -0.727 ± 0.043; with AMEMGVACVVCRQMMVASGNQLVECQECHNLYHRDCHKPQVTDKEANDPRLVWYCARCT, 0.036 ± 0.032; with AMEMGLACVVCRQSMVASGNQLVECQECHNLYHRDCHKPQVTDKEANDPRLVWYCARCT, 0.073 ± 0.032. As to AMEMGLACVVCRQMMVASGNQLVECQECHNLYHRDCHKPQVTDKEANDPRLVWYCASCT, the abundance fitness was -0.026 ± 0.043. As for AMEMGLACVVCRQMMVASGNQLVECQECHNLYHRDCHKPQVTIKEANDPRLVWYCARCT, the figure is -0.073 ± 0.06. AMEMGLACVVCRQMMVASGNQLVECQECHNLYHRDCHKPQVTFKEANDPRLVWYCARCT: the abundance fitness was -0.118 ± 0.082. As for AMEMGLACVVCRQMMVASGNQLVECQECHNLYHRDCHKPQVTAKEANDPRLVWYCARCT, the figure is -0.05 ± 0.039; as for AMEMGLACVVCRQMMVASGNQLVECQECHNLYHRDCHKPQVTMKEANDPRLVWYCARCT, -0.056 ± 0.045. Regarding AMEMGLACVVCRQMMVASGNQLVECQECHNLYHRDCHKPQVTDYEANDPRLVWYCARCT, the abundance fitness is -0.486 ± 0.07.

For AMEMGLACVVCRQMMVASGNQLVECQECHNLYHRDCHKPQVTDFEANDPRLVWYCARCT, the abundance fitness is -0.139 ± 0.073. AMEMGLACVVCRQMMVASGNQLVECQECHNLYHRDCHKPQVTDKEALDPRLVWYCARCT: the abundance fitness is -0.05 ± 0.037. Consider MMEMGLACVVCRQMMVASGNQLVECQECHNLYHRDCHKPQVTDKEANDPRLVWYCARCT, for which the abundance fitness is 0.03 ± 0.2. With NMEMGLACVVCRQMMVASGNQLVECQECHNLYHRDCHKPQVTDKEANDPRLVWYCARCT the figure was 0.109 ± 0.086; with AMEMGLACSVCRQMMVASGNQLVECQECHNLYHRDCHKPQVTDKEANDPRLVWYCARCT, -0.118 ± 0.032.

As to AMEMGLACVVCRQMMVASGNQLVECQEKHNLYHRDCHKPQVTDKEANDPRLVWYCARCT, the abundance fitness was -0.648 ± 0.072.

As to AMEMGLACVVCRQMMVASGNQLVECQEYHNLYHRDCHKPQVTDKEANDPRLVWYCARCT, the abundance fitness is -0.714 ± 0.04.

Regarding AMEMGLACVVCRQMMVASINQLVECQECHNLYHRDCHKPQVTDKEANDPRLVWYCARCT, the abundance fitness was -0.137 ± 0.051. With AMEMGLACVVCRQMMVASKNQLVECQECHNLYHRDCHKPQVTDKEANDPRLVWYCARCT, the abundance fitness amounted to 0.065 ± 0.078. As for ACEMGLACVVCRQMMVASGNQLVECQECHNLYHRDCHKPQVTDKEANDPRLVWYCARCT, the figure is -0.112 ± 0.04; as for AFEMGLACVVCRQMMVASGNQLVECQECHNLYHRDCHKPQVTDKEANDPRLVWYCARCT, -0.055 ± 0.036. As for AMEMGLACVVCRQMMPASGNQLVECQECHNLYHRDCHKPQVTDKEANDPRLVWYCARCT, the figure is -0.002 ± 0.05; as for AMEMGLACVVCRQMMIASGNQLVECQECHNLYHRDCHKPQVTDKEANDPRLVWYCARCT, -0.089 ± 0.035.

On to AMEMGLACVVCRMMMVASGNQLVECQECHNLYHRDCHKPQVTDKEANDPRLVWYCARCT, for which the abundance fitness was -0.132 ± 0.05. On to AMEMGLACVVCRQMMVAWGNQLVECQECHNLYHRDCHKPQVTDKEANDPRLVWYCARCT, for which the abundance fitness is -0.34 ± 0.058. With AMEMGLACVVCRQMMVAEGNQLVECQECHNLYHRDCHKPQVTDKEANDPRLVWYCARCT the figure was -0.001 ± 0.055.

As to AMEMGLACVVCRQMMVATGNQLVECQECHNLYHRDCHKPQVTDKEANDPRLVWYCARCT, the abundance fitness turned out to be 0.037 ± 0.037. With AMEMGLACVVCRQMMVAAGNQLVECQECHNLYHRDCHKPQVTDKEANDPRLVWYCARCT the figure was 0.017 ± 0.036; with AMEMGLACVVCRQMMVQSGNQLVECQECHNLYHRDCHKPQVTDKEANDPRLVWYCARCT, 0.069 ± 0.09.

Consider AMEMGLACVVCRQMMVASGNQLVECQECHNLYHRDCYKPQVTDKEANDPRLVWYCARCT, for which the abundance fitness was -0.249 ± 0.036. As for AMEMGLACVVCRQMMVASGNQLVECQECHNLYHRDCLKPQVTDKEANDPRLVWYCARCT, the figure is -0.145 ± 0.033. With AMEHGLACVVCRQMMVASGNQLVECQECHNLYHRDCHKPQVTDKEANDPRLVWYCARCT the figure was 0.065 ± 0.041.
